Non-standard residues stand in square brackets, D forms with d. No end group written: not given here. *: point of attachment. 1Nal = N[C@@H](Cc1cccc2ccccc12)C(=O)O; Cyclohexanecarbonyl = O=C(C1CCCCC1)*; Ala(cPr) = N[C@@H](CC1CC1)C(=O)O; 3Pal = N[C@@H](Cc1cccnc1)C(=O)O; 4Pal = N[C@@H](Cc1ccncc1)C(=O)O; Cha = N[C@@H](CC1CCCCC1)C(=O)O; Cit = NC(=O)NCCC[C@H](N)C(=O)O; dCha = N[C@H](CC1CCCCC1)C(=O)O; αMeP = C[C@@]1(C(=O)O)CCCN1; dIva = CC[C@@](C)(N)C(=O)O; Isobutyryl = CC(C)C(=O)*; Abu = CC[C@H](N)C(=O)O; Nleu = CC(C)CNCC(=O)O; Aib = CC(C)(N)C(=O)O; Inp = O=C(O)C1CCNCC1; Bz = O=C(c1ccccc1)*; βAla = NCCC(=O)O; Sar = CNCC(=O)O
Tests used:
human Y2 receptor [1] = biological target: T1, human Y2 receptor (Homo sapiens, UniProt P49146); test: Receptor Binding Assay (RBA) for Human Y2, [125I]-PYY displacement on hY2R/CHO membrane fraction; settings: IC50 of test compound/IC50 of PYY(3-36) (PYY(3-36) taken as 1)
T1 construct: expressed in transfected cells; membrane fraction
T1 sequence (P49146 1-381): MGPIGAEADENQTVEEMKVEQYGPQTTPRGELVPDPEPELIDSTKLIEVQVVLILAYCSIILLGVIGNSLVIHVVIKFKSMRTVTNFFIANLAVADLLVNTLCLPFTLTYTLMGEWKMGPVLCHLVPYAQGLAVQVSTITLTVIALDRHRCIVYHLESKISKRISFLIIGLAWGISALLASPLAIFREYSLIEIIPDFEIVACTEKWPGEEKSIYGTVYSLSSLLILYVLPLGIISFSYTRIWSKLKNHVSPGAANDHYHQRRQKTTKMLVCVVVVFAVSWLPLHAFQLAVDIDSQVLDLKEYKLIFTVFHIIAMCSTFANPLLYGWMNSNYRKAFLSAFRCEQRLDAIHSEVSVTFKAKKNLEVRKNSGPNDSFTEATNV
In short: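 Read-out is [125I]-PYY displacement from membranes of CHO/dhfr− cells stably transfected with human Y2R. Membranes were obtained by disrupting cells in a buffer of 10 mM NaHCO3, 5 mM EDTA and protease inhibitors.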

human Y2 receptor [2] = biological target: T1, human Y2 receptor; test: Human Y2 Receptor G Protein Binding Assay (GBA), [35S]GTPγS; assay type: biochemical; settings: EC50 of test compound/EC50 of PYY(3-36) (PYY3-36 taken as 1), hY2R/CHO membrane fraction
In short: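 Agonism measured as [35S]GTPγS binding, read by GF/C filtration and scintillation counting after 120 min at room temperature, using human Y2 membranes at 1 μg protein/mL in pH 7.4 Tris/MgCl2/NaCl/GDP buffer. Compound serially diluted 100 μM–1 nM; EC50 normalized to PYY(3-36) (ratio = compound/PYY).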

Row | RBA IC50 Ratio (human Y2 receptor [1]) | GBA EC50 Ratio (human Y2 receptor [2]) | Substance
1 | 1.2 | 1.6 | Ac-[Dap22, D-Pro24, Pya(4)26, Cha27,36, Aib28,31, Lys30]-PYY(22-36) [compound No. 273]
2 | 2.8 | 1.3 | Ac-[αMePro24, Cha27,28,36, Aib31]-PYY(23-36) (Ac-S[αMeP]RH[Cha][Cha]NL[Aib]TRQR[Cha]-NH2; SMILES CC(=O)N[C@@H](CO)C(=O)N1CCC[C@@]1(C)C(=O)N[C@@H](CCCNC(=N)N)C(=O)N[C@@H](Cc1c[nH]cn1)C(=O)N[C@@H](CC1CCCCC1)C(=O)N[C@@H](CC1CCCCC1)C(=O)N[C@@H](CC(N)=O)C(=O)N[C@@H](CC(C)C)C(=O)NC(C)(C)C(=O)N[C@H](C(=O)N[C@@H](CCCNC(=N)N)C(=O)N[C@@H](CCC(N)=O)C(=O)N[C@@H](CCCNC(=N)N)C(=O)N[C@@H](CC1CCCCC1)C(N)=O)[C@@H](C)O) [compound No. 154]
3 | 1.9 | 1.1 | Ac-[βAla24, Pya(4)26, Cha27,36, Aib28,31, Lys30]-PYY(23-36) (Ac-S[βAla]R[4Pal][Cha][Aib]NK[Aib]TRQR[Cha]-NH2; SMILES CC(=O)N[C@@H](CO)C(=O)NCCC(=O)N[C@@H](CCCNC(=N)N)C(=O)N[C@@H](Cc1ccncc1)C(=O)N[C@@H](CC1CCCCC1)C(=O)NC(C)(C)C(=O)N[C@@H](CC(N)=O)C(=O)N[C@@H](CCCCN)C(=O)NC(C)(C)C(=O)N[C@H](C(=O)N[C@@H](CCCNC(=N)N)C(=O)N[C@@H](CCC(N)=O)C(=O)N[C@@H](CCCNC(=N)N)C(=O)N[C@@H](CC1CCCCC1)C(N)=O)[C@@H](C)O) [compound No. 222]
4 | 20 | 8.4 | Ac-[N(iBu)Gly24, Cha27,28,36, Aib31]-PYY(23-36) (Ac-S[Nleu]RH[Cha][Cha]NL[Aib]TRQR[Cha]-NH2; SMILES CC(=O)N[C@@H](CO)C(=O)N(CC(=O)N[C@@H](CCCNC(=N)N)C(=O)N[C@@H](Cc1c[nH]cn1)C(=O)N[C@@H](CC1CCCCC1)C(=O)N[C@@H](CC1CCCCC1)C(=O)N[C@@H](CC(N)=O)C(=O)N[C@@H](CC(C)C)C(=O)NC(C)(C)C(=O)N[C@H](C(=O)N[C@@H](CCCNC(=N)N)C(=O)N[C@@H](CCC(N)=O)C(=O)N[C@@H](CCCNC(=N)N)C(=O)N[C@@H](CC1CCCCC1)C(N)=O)[C@@H](C)O)CC(C)C) [compound No. 108]
5 | 1.2 | 0.89 | Ac-[Phe22, D-Pro24, Pya(4)26, Cha27,36, Aib28,31, Lys30]-PYY(22-36) (Ac-FS[dP]R[4Pal][Cha][Aib]NK[Aib]TRQR[Cha]-NH2; SMILES CC(=O)N[C@@H](Cc1ccccc1)C(=O)N[C@@H](CO)C(=O)N1CCC[C@@H]1C(=O)N[C@@H](CCCNC(=N)N)C(=O)N[C@@H](Cc1ccncc1)C(=O)N[C@@H](CC1CCCCC1)C(=O)NC(C)(C)C(=O)N[C@@H](CC(N)=O)C(=O)N[C@@H](CCCCN)C(=O)NC(C)(C)C(=O)N[C@H](C(=O)N[C@@H](CCCNC(=N)N)C(=O)N[C@@H](CCC(N)=O)C(=O)N[C@@H](CCCNC(=N)N)C(=O)N[C@@H](CC1CCCCC1)C(N)=O)[C@@H](C)O) [compound No. 275]
6 | 4 | 3.4 | N-4-Pyridiniyl-[Pic(4)23, D-Pro24, Cha27,28,36, Aib31]-PYY(23-36) ([Inp][dP]RH[Cha][Cha]NL[Aib]TRQR[Cha]-NH2; not fully specified (N-terminus); printed as N-4-Pyridiniyl-[Pic(4)23, D-Pro24, Cha27,28,36, Aib31]-PYY(23-36)) [compound No. 125]

Continued, substance first:

Row | Substance | RBA IC50 Ratio (human Y2 receptor [1]) | GBA EC50 Ratio (human Y2 receptor [2])
7 | Cyclohexanecarbonyl-[Cha27,36, Ala(cPr)28, Aib31]-PYY(25-36) (Cyclohexanecarbonyl-RH[Cha][Ala(cPr)]NL[Aib]TRQR[Cha]-NH2; SMILES CC(C)C[C@H](NC(=O)[C@H](CC(N)=O)NC(=O)[C@H](CC1CC1)NC(=O)[C@H](CC1CCCCC1)NC(=O)[C@H](Cc1c[nH]cn1)NC(=O)[C@H](CCCNC(=N)N)NC(=O)C1CCCCC1)C(=O)NC(C)(C)C(=O)N[C@H](C(=O)N[C@@H](CCCNC(=N)N)C(=O)N[C@@H](CCC(N)=O)C(=O)N[C@@H](CCCNC(=N)N)C(=O)N[C@@H](CC1CCCCC1)C(N)=O)[C@@H](C)O) [compound No. 78] | 15 | 23
8 | Ac-[D-Pro24, Pya(4)26, Cha27,36, Aib28,31, Cit30]-PYY(23-36) (Ac-S[dP]R[4Pal][Cha][Aib]N[Cit][Aib]TRQR[Cha]-NH2; SMILES CC(=O)N[C@@H](CO)C(=O)N1CCC[C@@H]1C(=O)N[C@@H](CCCNC(=N)N)C(=O)N[C@@H](Cc1ccncc1)C(=O)N[C@@H](CC1CCCCC1)C(=O)NC(C)(C)C(=O)N[C@@H](CC(N)=O)C(=O)N[C@@H](CCCNC(N)=O)C(=O)NC(C)(C)C(=O)N[C@H](C(=O)N[C@@H](CCCNC(=N)N)C(=O)N[C@@H](CCC(N)=O)C(=O)N[C@@H](CCCNC(=N)N)C(=O)N[C@@H](CC1CCCCC1)C(N)=O)[C@@H](C)O) [compound No. 266] | 2.7 | 3.1
9 | Isobutanoyl-[Abu26, Cha27,36, Gln28, Aib31]-PYY(25-36) (Isobutyryl-R[Abu][Cha]QNL[Aib]TRQR[Cha]-NH2; SMILES CC[C@H](NC(=O)[C@H](CCCNC(=N)N)NC(=O)C(C)C)C(=O)N[C@@H](CC1CCCCC1)C(=O)N[C@@H](CCC(N)=O)C(=O)N[C@@H](CC(N)=O)C(=O)N[C@@H](CC(C)C)C(=O)NC(C)(C)C(=O)N[C@H](C(=O)N[C@@H](CCCNC(=N)N)C(=O)N[C@@H](CCC(N)=O)C(=O)N[C@@H](CCCNC(=N)N)C(=O)N[C@@H](CC1CCCCC1)C(N)=O)[C@@H](C)O) [compound No. 100] | 45 | 30
10 | Isobutanoyl-[Abu26, Cha27,28,36, Pya(3)31]-PYY(25-36) (Isobutyryl-R[Abu][Cha][Cha]NL[3Pal]TRQR[Cha]-NH2; SMILES CC[C@H](NC(=O)[C@H](CCCNC(=N)N)NC(=O)C(C)C)C(=O)N[C@@H](CC1CCCCC1)C(=O)N[C@@H](CC1CCCCC1)C(=O)N[C@@H](CC(N)=O)C(=O)N[C@@H](CC(C)C)C(=O)N[C@@H](Cc1cccnc1)C(=O)N[C@H](C(=O)N[C@@H](CCCNC(=N)N)C(=O)N[C@@H](CCC(N)=O)C(=O)N[C@@H](CCCNC(=N)N)C(=O)N[C@@H](CC1CCCCC1)C(N)=O)[C@@H](C)O) [compound No. 82] | 25 | 19
11 | Ac-[D-Ser23, Sar24, Cha27,28,36, Aib31]-PYY(23-36) (Ac-[dS][Sar]RH[Cha][Cha]NL[Aib]TRQR[Cha]-NH2; SMILES CC(=O)N[C@H](CO)C(=O)N(C)CC(=O)N[C@@H](CCCNC(=N)N)C(=O)N[C@@H](Cc1c[nH]cn1)C(=O)N[C@@H](CC1CCCCC1)C(=O)N[C@@H](CC1CCCCC1)C(=O)N[C@@H](CC(N)=O)C(=O)N[C@@H](CC(C)C)C(=O)NC(C)(C)C(=O)N[C@H](C(=O)N[C@@H](CCCNC(=N)N)C(=O)N[C@@H](CCC(N)=O)C(=O)N[C@@H](CCCNC(=N)N)C(=O)N[C@@H](CC1CCCCC1)C(N)=O)[C@@H](C)O) [compound No. 111] | 6.6 | 5.3
12 | Benzoyl-[Cha27,36, Nal(1)28, Aib31]-PYY(25-36) (Bz-RH[Cha][1Nal]NL[Aib]TRQR[Cha]-NH2; SMILES CC(C)C[C@H](NC(=O)[C@H](CC(N)=O)NC(=O)[C@H](Cc1cccc2ccccc12)NC(=O)[C@H](CC1CCCCC1)NC(=O)[C@H](Cc1c[nH]cn1)NC(=O)[C@H](CCCNC(=N)N)NC(=O)c1ccccc1)C(=O)NC(C)(C)C(=O)N[C@H](C(=O)N[C@@H](CCCNC(=N)N)C(=O)N[C@@H](CCC(N)=O)C(=O)N[C@@H](CCCNC(=N)N)C(=O)N[C@@H](CC1CCCCC1)C(N)=O)[C@@H](C)O) [compound No. 63] | 34 | 25
13 | Ac-[D-Pro24, D-Iva26, Cha27,28,36, Aib31]-PYY(23-36) (Ac-S[dP]R[dIva][Cha][Cha]NL[Aib]TRQR[Cha]-NH2; SMILES CC[C@@](C)(NC(=O)[C@H](CCCNC(=N)N)NC(=O)[C@H]1CCCN1C(=O)[C@H](CO)NC(C)=O)C(=O)N[C@@H](CC1CCCCC1)C(=O)N[C@@H](CC1CCCCC1)C(=O)N[C@@H](CC(N)=O)C(=O)N[C@@H](CC(C)C)C(=O)NC(C)(C)C(=O)N[C@H](C(=O)N[C@@H](CCCNC(=N)N)C(=O)N[C@@H](CCC(N)=O)C(=O)N[C@@H](CCCNC(=N)N)C(=O)N[C@@H](CC1CCCCC1)C(N)=O)[C@@H](C)O) [compound No. 181] | 19 | 13
14 | Ac-[D-Cha24, Abu26, Cha27,28,36, Aib31]-PYY(24-36) (Ac-[dCha]R[Abu][Cha][Cha]NL[Aib]TRQR[Cha]-NH2; SMILES CC[C@H](NC(=O)[C@H](CCCNC(=N)N)NC(=O)[C@@H](CC1CCCCC1)NC(C)=O)C(=O)N[C@@H](CC1CCCCC1)C(=O)N[C@@H](CC1CCCCC1)C(=O)N[C@@H](CC(N)=O)C(=O)N[C@@H](CC(C)C)C(=O)NC(C)(C)C(=O)N[C@H](C(=O)N[C@@H](CCCNC(=N)N)C(=O)N[C@@H](CCC(N)=O)C(=O)N[C@@H](CCCNC(=N)N)C(=O)N[C@@H](CC1CCCCC1)C(N)=O)[C@@H](C)O) [compound No. 84] | 15 | 13
